These results are taken from PMC9849446, “Heating-mediated purification of active FGF21 and structure-based design of its variant with enhanced potency” (Scientific Reports, 2023).

The Kd is the equilibrium constant for the complex coming apart. Low values mean higher affinity, high ones lower affinity. Usually koff stands for a measure of how fast the partners let go of each other. The term kon denotes the rate constant with which the complex forms. A low value points to slower complex formation.

T1: Human β-Klotho (human, UniProt Q86Z14 1-996)
T1 construct: human β-Klotho, recombinant protein bought from R&D Systems; source: bought: R&D Systems (cat# 5889-KB-050)
T1 sequence (looked up): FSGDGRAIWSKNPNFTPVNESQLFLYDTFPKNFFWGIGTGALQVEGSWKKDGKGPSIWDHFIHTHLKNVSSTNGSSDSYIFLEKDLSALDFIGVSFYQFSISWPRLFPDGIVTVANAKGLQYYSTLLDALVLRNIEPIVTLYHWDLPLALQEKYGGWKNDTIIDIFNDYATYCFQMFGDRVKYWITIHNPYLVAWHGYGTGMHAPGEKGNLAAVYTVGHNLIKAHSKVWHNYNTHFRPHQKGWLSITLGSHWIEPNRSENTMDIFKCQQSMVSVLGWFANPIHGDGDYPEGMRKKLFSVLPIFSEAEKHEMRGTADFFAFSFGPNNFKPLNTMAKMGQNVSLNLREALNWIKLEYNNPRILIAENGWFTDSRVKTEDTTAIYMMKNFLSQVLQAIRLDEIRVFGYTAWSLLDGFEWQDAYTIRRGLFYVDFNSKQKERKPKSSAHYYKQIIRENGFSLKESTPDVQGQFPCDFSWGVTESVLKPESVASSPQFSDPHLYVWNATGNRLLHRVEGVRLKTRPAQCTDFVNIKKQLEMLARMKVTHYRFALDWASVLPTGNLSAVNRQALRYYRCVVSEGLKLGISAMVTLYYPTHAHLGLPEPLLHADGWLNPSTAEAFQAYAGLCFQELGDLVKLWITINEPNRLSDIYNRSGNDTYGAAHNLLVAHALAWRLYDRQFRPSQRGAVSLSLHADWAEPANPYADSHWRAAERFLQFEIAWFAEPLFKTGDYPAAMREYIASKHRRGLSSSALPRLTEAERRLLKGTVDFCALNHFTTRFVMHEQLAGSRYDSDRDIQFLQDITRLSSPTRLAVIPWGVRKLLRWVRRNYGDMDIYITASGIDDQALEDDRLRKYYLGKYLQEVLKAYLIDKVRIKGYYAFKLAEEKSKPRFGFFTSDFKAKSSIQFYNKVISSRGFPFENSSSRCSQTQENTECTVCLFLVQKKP

B1: wild type human FGF21 purified through heat treatment (htFGF21) (ligand, UniProt Q9NSA1 33-209, looked up)
chain: DSSPLLQFGGQVRQRYLYTDDAQQTEAHLEIREDGTVGGAADQSPESLLQLKALKPGVIQILGVKTSRFLCQRPDGALYGSLHFDPEACSFRELLLEDGYNVYQSEAHGLPLHLPGNKSPHRDPAPRGPARFLPLPGLPPALPEPPGILAPQPPDVGSSDPLSMVGPSQGRSPSYAS
notes: human fibroblast growth factor 21 (FGF21), residues 33-209; The TEV site ENLYFQ/G stood between Trx and FGF21, so a Gly probably remains before residue 33 after cleavage (surmised); also called htWT; wild type htFGF21; not shown: Trx, N-terminal, cleaved
B2: wild type human FGF21 purified without heating (nFGF21) (ligand, UniProt Q9NSA1 33-209, looked up)
chain: B1 chain
notes: human fibroblast growth factor 21 (FGF21), residues 33-209; differs only in that the 100 °C step was left out of the purification; The TEV site ENLYFQ/G stood between Trx and FGF21, so a Gly probably remains before residue 33 after cleavage (surmised); also called fibroblast growth factor 21; wild type FGF21; source: E. coli Rosetta (DE3), purified without heating; not shown: Trx, N-terminal, …
B3: htFGF21 variant with S195G, P199G, S200G, Q201H, and A208T mutations (htM5) (ligand, human, UniProt Q9NSA1 33-209, looked up)
chain: B1 chain with S163G, P167G, S168G, Q169H, A176T
notes: human FGF21 with S195G, P199G, S200G, Q201H and A208T; A Gly from the TEV site probably remains at the N-terminus (surmised); also called M5 variant; not shown: Trx, N-terminal, cleaved
B4: htFGF21 variant with S195G, P199G, and S200G mutations (htM3) (ligand, human, UniProt Q9NSA1 33-209, looked up)
chain: B1 chain with S163G, P167G, S168G
notes: human FGF21 with S195G, P199G and S200G; A Gly from the TEV site probably remains at the N-terminus (surmised); not shown: Trx, N-terminal, cleaved
B5: htFGF21 variant with Q201H and A208T mutations (htM2) (ligand, human, UniProt Q9NSA1 33-209, looked up)
chain: B1 chain with Q169H, A176T
notes: human FGF21 with Q201H and A208T; A Gly from the TEV site probably remains at the N-terminus (surmised); not shown: Trx, N-terminal, cleaved

Numbering of substitutions follows the chain as printed. Names may count otherwise.

In the first assay the target is T1, Human β-Klotho. Description: SPR; Biacore 8K; FGF21s covalently immobilised on CM5 chip by amine coupling (about 700-900 RU); human β-Klotho injected as 2.5-fold series 250 to 1.024 nM at 30 μl/min; 25 °C; HBS-EP+ (10 mM HEPES pH 7.4, 150 mM NaCl, 3 mM EDTA, 0.05% polysorbate 20); global fit, 1:1 Langmuir model. Conditions: both partners purified. (In general: In SPR one partner is held on a chip, and binding of the other changes the refractive index at the surface.)
On to B1, for which the dissociation constant (Kd) amounted to 12.9 nM, the koff worked out at 0.00155 s⁻¹ and the kon was 121000 M⁻¹ s⁻¹.

In turn, B2 came in with a Kd of 12.8 nM, a koff of 0.00159 s⁻¹ and an on-rate constant (kon) of 126000 M⁻¹ s⁻¹.

Regarding B3, the Kd was 4.32 nM, the dissociation rate constant (koff) was found to be 0.000707 s⁻¹ and the kon came out at 164000 M⁻¹ s⁻¹.

B4 had a dissociation constant (Kd) of 5.19 nM, a koff of 0.000785 s⁻¹ and a kon of 152000 M⁻¹ s⁻¹.

The molecule B5 had a Kd of 10.9 nM, an off-rate constant (koff) of 0.0013 s⁻¹ and a kon of 120000 M⁻¹ s⁻¹.

The next assay deals with T1, Human β-Klotho. Briefly: cell-based or functional assay.
Conditions: not given
Consider B1, for which the “EC50 of FGFR1c/β-Klotho activation, luciferase reporter in modified HEK293 cells, 6 h” value (shortened to “EC50 of FGFR1c/β-Klotho activation”) is 2.74 ng/mL.

Regarding B3, the “EC50 of FGFR1c/β-Klotho activation” value came out at 0.52 ng/mL.

For B4, the “EC50 of FGFR1c/β-Klotho activation” value worked out at 0.75 ng/mL.

For B5, the “EC50 of FGFR1c/β-Klotho activation” value is 1.37 ng/mL.
